Measurements taken from patent US11298402B2, “Lysosomal degradation of lipids and proteins and method of use thereof” (University of Ottawa, priority 2015, dated 2022).

What was measured:
mice [1] = test: Mice fed a high fat diet for 30 days, adenoviral vector via tail vein; assay type: in vivo; settings: HFD 30 days, Adv-MG1023 10^9 pfu/mouse, 48 h; vs empty vector
From the text: (§1) Mice were fed with a high fat diet (HFD) for 30 days, and injected with Adv-empty vector (EV) or Adv-MG1023 expressing Arl8b^T34N via the tail vein (10^9 pfu/mouse). Forty eight hours after virus injection, mice were euthanized and dissected to collect liver tissue samples. Liver tissues were frozen fresh in Cryomatrix (ThermoScientific), and then sectioned and processed for oil red o staining. Intrahepatic liver lipid droplets in the liver sections were observed under bright field microscope (Zeiss AxioImager M2).
as §1, with “In FIG. 48, mice” for “Mice”, “Adv-MG1023 vector (FIG. 46)” for “Adv-MG1023”, “tissues.” for “tissue samples.”

[2] = system: HCV core protein expressing cells; test: Imaging of HCV core protein expressing cells; assay type: cell-based
From the text: This may be because the presence of HCV core protein may “lock” lysosomes onto the LD surface during the lysosomal engulfment process, resulting in scattered distribution of lysosomes throughout the cell cytoplasm. This situation is similar to that observed in cells after prolonged treatment with oleate (see FIG. 36, top row). White arrows indicate HCV core protein (pseudo-colored in green) and lysosomes (LysoTracker; blue) in association with LDs;
FIG. 41 provides data illustrating the effect of Arl8b “DN” on HCV core distribution and interaction between lysosomes and lipid droplets.
As shown in HCV core protein expressing cells (FIG. 41, left panel), the HCV core proteins (GFP-tagged) are bound to CLDs. The core protein binding to the CLDs apparently renders persistent lysosomal interaction with CLDs (i.e. kiss without run) and thus impaired microautophagy. As explained with reference to FIG. 39, functional microautophagy includes proper lysosomal engulfment (Kiss) and termination of this process, via lysosomal “go”, “interact”, and “back” events. As detailed herein, by introducing a putative GDP-bound form or Arl8b (Arl8b^T34N) into the HCV core protein-expressing cells, microautophagy functionality may be restored (FIG. 41, right panel). […]

mice [3] = test: High fat diet and PO gavage for 10 days (palm oil-induced NASH mouse model); assay type: in vivo; settings: HFD and PO gavage 10 days; in comparison with Arl8b^Q75L-treated mice
Description: For comparison, control mice were treated with Adv-MG1022 (a vector expressing Arl8b^Q75L) and then subjected to HFD and PO gavage for 10 days. (A) provides visceral views, and liver morphology views, of Arl8b^Q75L and Arl8b^T34N-treated mice, showing enhanced resistance to fatty liver and fat accumulation in Arl8b^T34N-treated mice. (B) provides images of liver sections stained with Oil Red O from mice subjected to a high fat diet and PO gavage for 10 days followed by treatment with Adv-MG1023 vector expressing Arl8b^T34N. For comparison, images of liver sections stained with Oil Red O obtained from mice treated with Adv-MG1022 (a vector expressing Arl8b^Q75L) and then subjected to HFD and PO gavage for 10 days are also provided.
In FIG. 49, mice were subjected to a high fat diet and PO gavage for 10 days, followed by treatment with Adv-MG1023 vector expressing Arl8b^T34N. For comparison, mice were treated with Adv-MG1022 (a vector expressing Arl8b^Q75L; FIG. 46) and then subjected to HFD and PO gavage for 10 days. These experiments may be considered as palm oil-induced NASH mouse models. FIG. 49A provides visceral views, and liver morphology views, of Arl8b^Q75L and Arl8b^T34N-treated mice, showing enhanced resistance to fatty liver and fat accumulation in Arl8b^T34N-treated mice. […]

B1: Arl8b^T34N: putative GDP-bound, dominant negative Arl8b mutant (Thr-to-Asn at 34; SEQ ID NO: 12), expressed from plasmid or adenovirus Adv-MG1023; tagged forms used (protein)
chain: MLALISRLLDWFRSLFWKEEMELTLVGLQYSGKNTFVNVIASGQFSEDMIPTVGFNMRKVTKGNVTIKIWDIGGQPRFRSMWERYCRGVNAIVYMIDAADREKIEASRNELHNLLDKPQLQGIPVLVLGNKRDLPNALDEKQLIEKMNLSAIQDREICCYSISCKEKDNIDITLQWLIQHSKSRRS
modifications: GFP/RFP tags in some forms; T34N substitution, GDP-binding
notes: tagged forms used
- abdominal fat accumulation (mice [1]): less abdominal fat
- fatty liver (Oil Red O) (mice [1]): more resistant to fatty liver
- obesity (mice [1]): less obese
- HCV core protein distribution on CLD [2]: displaced HCV core protein from the CLD surface
- lysosome association with LD surface [2]: effectively displace lysosomes from LD surface
- fatty liver disease arising from HFD (mice [3]): enhanced resistance to fatty liver disease
